Measurements taken from paper PMC11098746 (2024).

T1: ADP141
T1 chain: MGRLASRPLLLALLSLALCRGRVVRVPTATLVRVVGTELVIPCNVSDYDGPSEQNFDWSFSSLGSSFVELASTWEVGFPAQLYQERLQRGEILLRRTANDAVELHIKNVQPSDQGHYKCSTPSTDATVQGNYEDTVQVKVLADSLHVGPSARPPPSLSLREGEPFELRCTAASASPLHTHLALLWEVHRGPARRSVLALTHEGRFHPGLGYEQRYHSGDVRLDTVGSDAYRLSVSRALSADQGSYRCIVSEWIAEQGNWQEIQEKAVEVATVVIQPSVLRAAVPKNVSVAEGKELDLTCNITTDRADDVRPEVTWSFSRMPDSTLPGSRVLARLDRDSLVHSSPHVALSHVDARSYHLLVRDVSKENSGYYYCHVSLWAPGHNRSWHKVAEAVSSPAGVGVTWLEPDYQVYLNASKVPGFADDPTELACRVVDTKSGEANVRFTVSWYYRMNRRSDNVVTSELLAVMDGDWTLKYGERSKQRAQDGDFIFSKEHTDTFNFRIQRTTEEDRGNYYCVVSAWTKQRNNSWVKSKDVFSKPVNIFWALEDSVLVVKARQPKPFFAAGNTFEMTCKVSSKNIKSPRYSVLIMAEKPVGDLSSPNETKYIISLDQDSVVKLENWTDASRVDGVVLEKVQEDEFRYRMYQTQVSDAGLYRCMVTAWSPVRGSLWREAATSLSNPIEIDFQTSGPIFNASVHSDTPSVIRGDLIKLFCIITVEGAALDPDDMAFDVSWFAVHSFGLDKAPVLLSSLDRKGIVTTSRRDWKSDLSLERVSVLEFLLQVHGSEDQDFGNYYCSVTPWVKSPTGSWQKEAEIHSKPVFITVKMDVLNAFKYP

T2: ADP317
T2 chain: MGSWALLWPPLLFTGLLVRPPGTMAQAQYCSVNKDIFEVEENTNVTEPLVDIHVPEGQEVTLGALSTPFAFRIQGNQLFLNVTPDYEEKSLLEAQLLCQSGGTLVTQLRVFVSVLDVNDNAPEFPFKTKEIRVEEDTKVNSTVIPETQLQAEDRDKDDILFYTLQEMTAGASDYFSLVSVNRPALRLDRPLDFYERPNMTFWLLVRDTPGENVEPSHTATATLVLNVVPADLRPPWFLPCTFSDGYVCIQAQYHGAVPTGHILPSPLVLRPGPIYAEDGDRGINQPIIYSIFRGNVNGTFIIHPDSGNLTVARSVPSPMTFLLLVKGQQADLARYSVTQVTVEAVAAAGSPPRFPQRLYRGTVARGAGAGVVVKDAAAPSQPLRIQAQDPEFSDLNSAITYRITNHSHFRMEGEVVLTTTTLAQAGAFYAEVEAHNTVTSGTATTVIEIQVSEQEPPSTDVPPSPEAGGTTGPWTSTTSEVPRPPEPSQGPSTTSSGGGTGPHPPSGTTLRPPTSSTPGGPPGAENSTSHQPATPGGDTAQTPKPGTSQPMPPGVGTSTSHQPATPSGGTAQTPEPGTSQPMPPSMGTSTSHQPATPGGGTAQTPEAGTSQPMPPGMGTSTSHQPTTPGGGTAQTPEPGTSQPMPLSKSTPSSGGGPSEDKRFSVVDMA

T3: ADP276
T3 chain: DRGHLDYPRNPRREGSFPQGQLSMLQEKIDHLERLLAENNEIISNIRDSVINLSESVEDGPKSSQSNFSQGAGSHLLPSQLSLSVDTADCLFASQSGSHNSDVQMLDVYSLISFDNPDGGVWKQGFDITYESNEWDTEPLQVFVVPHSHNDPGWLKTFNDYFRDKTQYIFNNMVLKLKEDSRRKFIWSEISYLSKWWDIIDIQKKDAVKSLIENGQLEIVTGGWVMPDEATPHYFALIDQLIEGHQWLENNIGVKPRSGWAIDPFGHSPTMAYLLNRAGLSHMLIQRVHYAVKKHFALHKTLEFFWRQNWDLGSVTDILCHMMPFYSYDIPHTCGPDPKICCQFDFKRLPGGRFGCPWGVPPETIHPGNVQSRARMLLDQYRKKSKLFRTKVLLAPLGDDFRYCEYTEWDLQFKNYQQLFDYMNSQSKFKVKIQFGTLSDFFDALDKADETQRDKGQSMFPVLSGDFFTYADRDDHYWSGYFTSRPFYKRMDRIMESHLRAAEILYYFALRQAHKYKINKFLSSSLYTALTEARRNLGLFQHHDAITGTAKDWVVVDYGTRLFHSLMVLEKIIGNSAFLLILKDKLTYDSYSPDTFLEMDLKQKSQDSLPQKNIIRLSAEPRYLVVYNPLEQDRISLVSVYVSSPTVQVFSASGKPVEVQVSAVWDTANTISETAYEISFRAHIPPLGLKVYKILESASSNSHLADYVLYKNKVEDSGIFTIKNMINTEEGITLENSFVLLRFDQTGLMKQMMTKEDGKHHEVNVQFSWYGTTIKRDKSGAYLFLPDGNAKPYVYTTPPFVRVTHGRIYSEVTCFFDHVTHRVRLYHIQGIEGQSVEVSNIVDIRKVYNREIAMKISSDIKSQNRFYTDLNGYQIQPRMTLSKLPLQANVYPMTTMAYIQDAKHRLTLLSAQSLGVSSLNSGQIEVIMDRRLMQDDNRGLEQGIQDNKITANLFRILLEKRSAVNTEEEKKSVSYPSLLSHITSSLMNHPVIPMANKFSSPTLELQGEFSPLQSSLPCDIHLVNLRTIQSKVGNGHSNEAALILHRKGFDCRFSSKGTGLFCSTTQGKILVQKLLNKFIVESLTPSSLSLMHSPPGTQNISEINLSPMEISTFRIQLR

B1: ADP227 (protein)
chain: LKVPIENAPFVFNKKENDIKYFLDKETPDDFLSNNAYSLDITLENFPNPFFHPSLCNRYGFKFSYICDPNKILSRNIADQIEEILNYQRRNSKHFCVDKEVPYVLGVALINKLPYGISADTFASQIFEYWKLSNKDCNDGVLLFFVKEDTHFILKWKKGAQSIINFRTATSMNKAFNQYLRKYSLEYSILSAVKLTSQYLTEEIIPPTQTAQK
modifications: bait human Fc-tagged dimer; N-glycosylation sequons mutated in Plasmodium baits
B2: ADP168 (protein)
chain: NNIKLNDKENINFESYFNKRTNEENVLNKNVAKEMGDTFVAHKAIELNINHHHVNNDKEFNNNNNNKHQPYYHNEHDKKFSESLKAHMDHLKILNNDLKQHIDKKERNEIYENNDLKKYIIKEIQNNKYLNKEKKSSEDIQILEEHSKKLQKEIHEWLESVNNIEEKSNILKNIKSQLLNNIASLNHALSEEIKNINDIKELQKQQNDLFSENWLYFLPSSSDYLLNEKKKNLYDNQDNSMKDDINNNDKYNIFNYLQNVQDKDNQYEVMKQDNNNIHSGSS
modifications: bait human Fc-tagged dimer; N-glycosylation sequons mutated in Plasmodium baits

How the values were obtained:
Experiment in all cases: AVEXIS screen signal:noise (double-corrected)
ADP141 = molecular target: T1, ADP141
ADP317 = molecular target: T2, ADP317
ADP363 = molecular target: ADP363
ADP276 = molecular target: T3, ADP276

Binder	binding score (ADP141)	binding score (ADP317)	binding score (ADP363)	binding score (ADP276)
B1	6.72	5.21		
B2			198	5.43
